According to the supplement of paper PMC12458215:
± gives the uncertainty stated by the source.

Tested on: HEK293T
Assay: plasma membrane surface immunostaining intensity (anti-HA, deep receptor scanning) (arbitrary fluorescence units); higher = higher plasma membrane expression

Sequence | plasma membrane surface immunostaining intensity (GPCR class: A (Olfactory)) | plasma membrane surface immunostaining intensity (GPCR class: A) | further results
MESNQTWITEVILLGFQVDPALELFLFGFFLLFYSLTLMGNGIILGLIYLDSRLHTPMYVFLSHLAIVDMSYASSTVPKMLANLVMHKKVISFAPCILQTFLYLAFAITECLILVMMCYDRYVAICHPLQYTLIMNWRVCTVLASTCWIFSFLLALVHITLILRLPFCGPQKINHFFCQIMSVFKLACADTRLNQVVLFAGSAFILVGPLCLVLVSYLHILVAILRIQSGEGRRKAFSTCSSHLCVVGLFFGSAIVMYMAPKSSHSQERRKILSLFYSLFNPILNPLIYSLRNAEVKGALKRVLWKQRSM [OR2A12] | 126 ± 28 | – | –
MDNASFSEPWPANASGPDPALSCSNASTLAPLPAPLAVAVPVVYAVICAVGLAGNSAVLYVLLRAPRMKTVTNLFILNLAIADELFTLVLPINIADFLLRQWPFGELMCKLIVAIDQYNTFSSLYFLTVMSADRYLVVLATAESRRVAGRTYSAARAVSLAVWGIVTLVVLPFAVFARLDDEQGRRQCVLVFPQPEAFWWRASRLYTLVLGFAIPVSTICVLYTTLLCRLHAMRLDSHAKALERAKKRVTFLVVAILAVCLLCWTPYHLSTVVALTTDLPQTPLVIAISYFITSLSYANSCLNPFLYAFLDASFRRNLRQLITCRAAA [NPBWR1] | – | 3950 ± 330 | –
MLNTTSVTEFLLLGVTDIQELQPFLFVVFLTIYFISVTGNGAVLMIVISDPRLHSLMYFFLGNLSYLDICYSTVTLPKMLQNFLSTHKAISFLGCISQLHFFHSLGSTESMLFAVMAFDLSVAICKPLRYTVIMNPQLCTQMAITIWVIGFFHALLHSVMTSRLNFCGSNRIHHFLCDIKPLLKLACGNTELNQWLLSTVTGTIAMGPFFLTLLSYFYIITYLFFKTRSCSMLCKALSTCASHFMVVILFYAPVLFTYIHPALESFMDQDRIVAIMYTVVTPVLNPLIYTLRNKEVKGALGRVIRRL [OR12D2] | 126 ± 22 | – | –
MPKLNSTFVTEFLFEGFSSFRRQHKLVFFVVFLTLYLLTLSGNVIIMTIIRLDHHLHTPMYFFLCMLSISETCYTVAIIPHMLSGLLNPHQPIATQSCATQLFFYLTFGINNCFLLTVMGYDRYVAICNPLRYSVIMGKRACIQLASGSLGIGLGMAIVQVTSVFGLPFCDAFVISHFFCDVRHLLKLACTDTTVNEIINFVVSVCVLVLPMGLVFISYVLIISTILKIASAEGQKKAFATCASHLTVVIIHYGCASIIYLKPKSQSSLGQDRLISVTYTHHSPTEPCCVQPEEQGGQRCSAQSRGAKNSVSLMKRGCEGFSFAFINMY [OR10J3] | 164 ± 60 | – | –
MNTSAPPAVSPNITVLAPGKGPWQVAFIGITTGLLSLATVTGNLLVLISFKVNTELKTVNNYFLLSLACADLIIGTFSMNLYTTYLLMGHWALGTLACDLWLALDYVASNASVMNLLLISFDRYFSVTRPLSYRAKRTPRRAALMIGLAWLVSFVLWAPAILFWQYLVGERTVLAGQCYIQFLSQPIITFGTAMAAFYLPVTVMCTLYWRIYRETENRARELAALQGSETPGKGGGSSSSSERSQPGAEGSPETPPGRCCRCCRAPRLLQAYSWKEEEEEDEGSMESLTSSEGEEPGSEVVIKMPMVDPEAQAPTKQPPRSSPNTVKRPTKKGRDRAGKGQKPRGKEQLAKRKTFSLVKEKKAARTLSAILLAFILTWTPYNIMVLVSTFCKDCVPETLWELGYWLCYVNSTINPMCYALCNKAFRDTFRLLLLCRWDKRRWRKIPKRPGSVHRTPSRQC [CHRM1] | – | 2530 ± 130 | –
MAETSALPTGFGELEVLAVGMVLLVEALSGLSLNTLTIFSFCKTPELRTPCHLLVLSLALADSGISLNALVAATSSLLRRWPYGSDGCQAHGFQGFVTALASICSSAAIAWGRYHHYCTRSQLAWNSAVSLVLFVWLSSAFWAALPLLGWGHYDYEPLGTCCTLDYSKGDRNFTSFLFTMSFFNFAMPLFITITSYSLMEQKLGKSGHLQVNTTLPARTLLLGWGPYAILYLYAVIADVTSISPKLQMVPALIAKMVPTINAINYALGNEMVCRGIWQCLSPQKREKDRTK [RGR] | – | 125 ± 16 | –
MWGRLLLWPLVLGFSLSGGTQTPSVYDESGSTGGGDDSTPSILPAPRGYPGQVCANDSDTLELPDSSRALLLGWVPTRLVPALYGLVLVVGLPANGLALWVLATQAPRLPSTMLLMNLAAADLLLALALPPRIAYHLRGQRWPFGEAACRLATAALYGHMYGSVLLLAAVSLDRYLALVHPLRARALRGRRLALGLCMAAWLMAAALALPLTLQRQTFRLARSDRVLCHDALPLDAQASHWQPAFTCLALLGCFLPLLAMLLCYGATLHTLAASGRRYGHALRLTAVVLASAVAFFVPSNLLLLLHYSDPSPSAWGNLYGAYVPSLALSTLNSCVDPFIYYYVSAEFRDKVRAGLFQRSPGDTVASKASAEGGSRGMGTHSSLLQ [F2RL3] | – | 894 ± 240 | –
MCWTMPSPFTGSSTRNMESGNQSTVTEFIFTGFPQLQDGSLLYFFPLLFIYTFIIIDNLLIFSAVRLDTHLHNPMYNFISIFSFLEIWYTTATIPKMLSNLISEKKAISMTGCILQMYFFHSLENSEGILLTTMAIDRYVAICNPLRYQMIMTPRLCAQLSAGSCLFGFLILLPEIVMISTLPFCGPNQIHQIFCDLVPVLSLACTDTSMILIEDVIHAVTIIITFLIIALSYVRIVTVILRIPSSEGRQKAFSTCAGHLMVFPIFFGSVSLMYLRFSDTYPPVLDTAIALMFTVLAPFFNPIIYSLRNKDMNNAIKKLFCLQKVLNKPGG [OR6K3] | 197 ± 66 | – | –
MLRLFYFSAIIASVILNFVGIIMNLFITVVNCKTWVKSHRISSSDRILFSLGITRFLMLGLFLVNTIYFVSSNTERSVYLSAFFVLCFMFLDSSSVWFVTLLNILYCVKITNFQHSVFLLLKRNISPKIPRLLLACVLISAFTTCLYITLSQASPFPELVTTRNNTSFNISEGILSLVVSLVLSSSLQFIINVTSASLLIHSLRRHIQKMQKNATGFWNPQTEAHVGAMKLMVYFLILYIPYSVATLVQYLPFYAGMDMGTKSICLIFATLYSPGHSVLIIITHPKLKTTAKKILCFKK [TAS2R4] | – | – | plasma membrane surface immunostaining intensity (GPCR class: Taste): 139 ± 19
MDAALLHSLLEANCSLALAEELLLDGWGPPLDPEGPYSYCNTTLDQIGTCWPRSAAGALVERPCPEYFNGVKYNTTRNAYRECLENGTWASKINYSQCEPILDDKQRKYDLHYRIALVVNYLGHCVSVAALVAAFLLFLALRSIRCLRNVIHWNLITTFILRNVMWFLLQLVDHEVHESNEVWCRCITTIFNYFVVTNFFWMFVEGCYLHTAIVMTYSTERLRKCLFLFIGWCIPFPIIVAWAIGKLYYENEQCWFGKEPGDLVDYIYQGPIILVLLINFVFLFNIVRILMTKLRASTTSETIQYRKAVKATLVLLPLLGITYMLFFVNPGEDDLSQIMFIYFNSFLQSFQGFFVSVFYCFFNGEVRSAVRKRWHRWQDHHSLRVPMARAMSIPTSPTRISFHSIKQTAAV [CRHR2] | – | – | plasma membrane surface immunostaining intensity (GPCR class: B): 2380 ± 560
MQPESGANGTVIAEFILLGLLEAPGLQPVVFVLFLFAYLVTVRGNLSILAAVLVEPKLHTPMYFFLGNLSVLDVGCISVTVPSMLSRLLSRKRAVPCGACLTQLFFFHLFVGVDCFLLTAMAYDRFLAICRPLTYSTRMSQTVQRMLVAASWACAFTNALTHTVAMSTLNFCGPNVINHFYCDLPQLFQLSCSSTQLNELLLFAVGFIMAGTPMALIVISYIHVAAAVLRIRSVEGRKKAFSTCGSHLTVVAIFYGSGIFNYMRLGSTKLSDKDKAVGIFNTVINPMLNPIIYSFRNPDVQSAIWRMLTGRRSLA [OR3A1] | 125 ± 18 | – | –
MNSENLTRAAVAPAEFVLLGITNRWDLRVALFLTCLPVYLVSLLGNMGMALLIRMDARLHTPMYFFLANLSLLDACYSSAIGPKMLVDLLLPRATIPYTACALQMFVFAGLADTECCLLAAMAYDRYVAIRNPLLYTTAMSQRLCLALLGASGLGGAVSAFVHTTLTFRLSFCRSRKINSFFCDIPPLLAISCSDTSLNELLLFAICGFIQTATVLAITVSYGFIAGAVIHMRSVEGSRRAASTGGSHLTAVAMMYGTLIFMYLRPSSSYALDTDKMASVFYTLVIPSLNPLIYSLRNKEVKEALRQTWSRFHCPGQGSQ [OR5C1] | 177 ± 14 | – | –
